Source: US20200199241A1 (Chugai, published 2020)
Positions count from the first letter of the chain named. Names and notes keep the numbering of the source.

T1: human FcγRIIb (human, UniProt P31994 43-217, limits assumed)
T1 construct: also called FcgRIIb
T1 sequence: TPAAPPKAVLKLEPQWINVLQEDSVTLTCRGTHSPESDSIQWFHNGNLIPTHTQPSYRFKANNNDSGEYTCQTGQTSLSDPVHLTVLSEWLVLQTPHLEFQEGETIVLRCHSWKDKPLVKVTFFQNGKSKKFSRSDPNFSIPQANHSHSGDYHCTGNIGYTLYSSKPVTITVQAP

T2: human FcγRIIa(H) (human, UniProt P12318 36-217)
T2 construct: also called FcgRIIaH; FcγRIIa type H
T2 sequence: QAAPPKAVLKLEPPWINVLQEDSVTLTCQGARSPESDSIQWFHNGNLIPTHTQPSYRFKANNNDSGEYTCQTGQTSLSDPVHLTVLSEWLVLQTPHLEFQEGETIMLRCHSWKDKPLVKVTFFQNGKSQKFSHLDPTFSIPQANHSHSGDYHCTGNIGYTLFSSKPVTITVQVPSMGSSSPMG

T3: human FcγRIIa(R) (human, UniProt P12318 36-217)
T3 construct: also called FcgRIIaR; FcγRIIa type R
T3 chain: T2 sequence with H133R

B1: GpH7-B3 variant E269M/GpL16-k0 (antibody, human IgG1)
heavy: not shown
light: DIVMTQSPLSLPVTPGEPASISCQASESLVHSNRNTYLHWYLQKPGQSPQLLIYKVSNRFSGVPDRFSGSGSGTDFTLKISRVEAEDVGVYYCSQNTHVPPTFGQGTKVEIE
notes: copies: 2 + 2
B2: GpH7-B3 variant E269N/GpL16-k0 (antibody, human IgG1)
heavy: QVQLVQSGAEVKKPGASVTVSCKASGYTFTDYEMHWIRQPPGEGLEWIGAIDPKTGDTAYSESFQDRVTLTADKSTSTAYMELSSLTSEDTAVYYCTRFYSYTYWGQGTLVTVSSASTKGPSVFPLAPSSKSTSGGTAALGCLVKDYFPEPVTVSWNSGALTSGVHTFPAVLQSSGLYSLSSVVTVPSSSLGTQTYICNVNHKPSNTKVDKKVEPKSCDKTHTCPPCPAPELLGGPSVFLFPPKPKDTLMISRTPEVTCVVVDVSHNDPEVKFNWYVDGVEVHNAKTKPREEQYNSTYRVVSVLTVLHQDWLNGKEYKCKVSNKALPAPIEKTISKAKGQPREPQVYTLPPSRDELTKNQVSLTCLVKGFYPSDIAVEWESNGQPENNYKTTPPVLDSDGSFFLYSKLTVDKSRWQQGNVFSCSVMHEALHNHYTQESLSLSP
light: B1 light
notes: copies: 2 + 2
B3: GpH7-B3 variant E269P/GpL16-k0 (antibody, human IgG1)
heavy: not shown
light: B1 light
notes: copies: 2 + 2
B4: GpH7-B3 variant E269Q/GpL16-k0 (antibody, human IgG1)
heavy: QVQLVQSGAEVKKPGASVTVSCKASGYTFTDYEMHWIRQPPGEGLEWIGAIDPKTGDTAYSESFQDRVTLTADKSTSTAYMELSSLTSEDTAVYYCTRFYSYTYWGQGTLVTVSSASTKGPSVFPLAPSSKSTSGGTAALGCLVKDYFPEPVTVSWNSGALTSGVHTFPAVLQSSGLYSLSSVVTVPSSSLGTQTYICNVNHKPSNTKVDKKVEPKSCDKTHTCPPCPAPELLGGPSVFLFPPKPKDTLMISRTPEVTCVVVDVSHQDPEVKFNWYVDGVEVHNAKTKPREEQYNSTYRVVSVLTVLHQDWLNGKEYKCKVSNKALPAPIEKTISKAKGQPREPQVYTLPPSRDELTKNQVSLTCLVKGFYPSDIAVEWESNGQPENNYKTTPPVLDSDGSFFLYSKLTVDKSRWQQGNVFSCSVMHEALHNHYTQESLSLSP
light: B1 light
notes: copies: 2 + 2
B5: GpH7-B3 variant E269R/GpL16-k0 (antibody, human IgG1)
heavy: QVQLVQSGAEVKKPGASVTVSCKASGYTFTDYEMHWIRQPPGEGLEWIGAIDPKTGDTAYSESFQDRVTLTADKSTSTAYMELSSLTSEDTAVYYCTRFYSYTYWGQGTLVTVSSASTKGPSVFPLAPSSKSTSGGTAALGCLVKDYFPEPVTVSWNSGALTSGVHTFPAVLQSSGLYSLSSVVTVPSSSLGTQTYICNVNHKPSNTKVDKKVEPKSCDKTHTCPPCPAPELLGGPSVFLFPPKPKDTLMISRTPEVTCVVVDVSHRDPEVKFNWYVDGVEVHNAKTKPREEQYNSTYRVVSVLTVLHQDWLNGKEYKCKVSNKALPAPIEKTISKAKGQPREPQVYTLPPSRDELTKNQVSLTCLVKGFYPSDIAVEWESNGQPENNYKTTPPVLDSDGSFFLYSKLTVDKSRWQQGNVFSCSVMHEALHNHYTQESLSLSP
light: B1 light
notes: copies: 2 + 2
B6: GpH7-B3 variant E269T/GpL16-k0 (antibody, human IgG1)
heavy: not shown
light: B1 light
notes: copies: 2 + 2
B7: GpH7-B3 variant E269V/GpL16-k0 (antibody, human IgG1)
heavy: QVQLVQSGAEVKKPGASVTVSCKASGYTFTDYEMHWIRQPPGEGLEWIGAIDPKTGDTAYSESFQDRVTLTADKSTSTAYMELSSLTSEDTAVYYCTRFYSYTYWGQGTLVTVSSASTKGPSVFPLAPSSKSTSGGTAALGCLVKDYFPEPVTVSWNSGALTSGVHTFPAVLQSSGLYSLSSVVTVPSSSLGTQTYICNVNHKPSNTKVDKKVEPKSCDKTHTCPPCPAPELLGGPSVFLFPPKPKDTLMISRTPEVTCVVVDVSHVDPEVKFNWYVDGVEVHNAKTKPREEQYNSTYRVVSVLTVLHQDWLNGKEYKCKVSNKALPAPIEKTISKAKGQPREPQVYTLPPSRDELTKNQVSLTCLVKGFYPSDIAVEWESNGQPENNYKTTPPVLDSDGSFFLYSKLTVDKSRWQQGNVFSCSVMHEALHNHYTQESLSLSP
light: B1 light
notes: copies: 2 + 2
B8: GpH7-B3 variant E269Y/GpL16-k0 (antibody, human IgG1)
heavy: not shown
light: B1 light
notes: copies: 2 + 2
B9: GpH7-B3 variant E2698/GpL16-k0 (antibody, human IgG1)
heavy: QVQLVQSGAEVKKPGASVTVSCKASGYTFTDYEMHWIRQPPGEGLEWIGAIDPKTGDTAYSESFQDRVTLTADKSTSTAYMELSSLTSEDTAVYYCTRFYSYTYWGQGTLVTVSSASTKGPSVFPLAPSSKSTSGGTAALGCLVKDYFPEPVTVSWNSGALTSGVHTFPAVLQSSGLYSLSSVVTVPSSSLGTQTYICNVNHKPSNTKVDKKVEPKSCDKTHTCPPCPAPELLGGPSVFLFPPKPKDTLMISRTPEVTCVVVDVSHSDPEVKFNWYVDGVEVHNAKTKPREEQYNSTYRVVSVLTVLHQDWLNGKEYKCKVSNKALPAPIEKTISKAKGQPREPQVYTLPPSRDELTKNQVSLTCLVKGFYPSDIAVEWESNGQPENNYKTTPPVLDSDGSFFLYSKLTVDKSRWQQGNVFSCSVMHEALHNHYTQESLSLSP
light: B1 light
notes: read as E269S (misprint of S as 8); copies: 2 + 2
B10: GpH7-B3 variant G236F/GpL16-k0 (antibody, human IgG1)
heavy: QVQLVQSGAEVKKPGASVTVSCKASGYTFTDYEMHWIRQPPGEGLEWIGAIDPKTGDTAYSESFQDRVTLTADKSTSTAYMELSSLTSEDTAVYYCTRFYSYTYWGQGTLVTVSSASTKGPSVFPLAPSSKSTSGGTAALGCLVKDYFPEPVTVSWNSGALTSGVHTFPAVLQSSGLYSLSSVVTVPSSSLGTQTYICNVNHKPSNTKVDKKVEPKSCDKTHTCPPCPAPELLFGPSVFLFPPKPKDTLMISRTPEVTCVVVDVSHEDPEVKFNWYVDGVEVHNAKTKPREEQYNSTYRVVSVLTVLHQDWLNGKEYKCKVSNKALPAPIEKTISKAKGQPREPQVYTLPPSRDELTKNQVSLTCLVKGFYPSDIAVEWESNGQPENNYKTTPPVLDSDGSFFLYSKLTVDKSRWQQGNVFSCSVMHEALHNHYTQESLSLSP
light: B1 light
notes: copies: 2 + 2
B11: GpH7-B3 variant G236H/GpL16-k0 (antibody, human IgG1)
heavy: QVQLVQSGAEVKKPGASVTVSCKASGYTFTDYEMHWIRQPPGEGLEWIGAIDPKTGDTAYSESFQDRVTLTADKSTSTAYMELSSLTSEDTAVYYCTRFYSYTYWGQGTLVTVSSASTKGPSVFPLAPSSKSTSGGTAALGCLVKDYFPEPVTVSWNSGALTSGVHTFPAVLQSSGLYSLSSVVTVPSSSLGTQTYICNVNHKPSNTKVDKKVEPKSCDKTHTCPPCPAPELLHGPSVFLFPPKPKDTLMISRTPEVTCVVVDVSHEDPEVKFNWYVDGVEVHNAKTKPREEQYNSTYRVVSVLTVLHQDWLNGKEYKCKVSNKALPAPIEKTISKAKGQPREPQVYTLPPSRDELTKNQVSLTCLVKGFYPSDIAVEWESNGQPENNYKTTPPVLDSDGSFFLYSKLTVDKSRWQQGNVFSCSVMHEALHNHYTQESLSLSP
light: B1 light
notes: copies: 2 + 2
B12: GpH7-B3 variant G236L/GpL16-k0 (antibody, human IgG1)
heavy: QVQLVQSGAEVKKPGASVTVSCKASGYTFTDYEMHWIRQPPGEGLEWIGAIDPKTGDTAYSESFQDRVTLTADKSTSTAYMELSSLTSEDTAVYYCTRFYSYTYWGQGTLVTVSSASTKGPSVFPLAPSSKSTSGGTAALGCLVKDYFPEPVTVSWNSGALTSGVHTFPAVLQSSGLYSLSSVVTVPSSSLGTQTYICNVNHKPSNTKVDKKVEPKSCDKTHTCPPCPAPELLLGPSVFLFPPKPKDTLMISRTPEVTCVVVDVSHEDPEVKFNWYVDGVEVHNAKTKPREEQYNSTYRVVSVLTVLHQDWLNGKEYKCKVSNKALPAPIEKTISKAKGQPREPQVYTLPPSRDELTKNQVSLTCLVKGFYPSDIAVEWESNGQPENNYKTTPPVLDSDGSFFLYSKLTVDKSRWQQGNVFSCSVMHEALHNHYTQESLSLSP
light: B1 light
notes: copies: 2 + 2
B13: GpH7-B3 variant G236M/GpL16-k0 (antibody, human IgG1)
heavy: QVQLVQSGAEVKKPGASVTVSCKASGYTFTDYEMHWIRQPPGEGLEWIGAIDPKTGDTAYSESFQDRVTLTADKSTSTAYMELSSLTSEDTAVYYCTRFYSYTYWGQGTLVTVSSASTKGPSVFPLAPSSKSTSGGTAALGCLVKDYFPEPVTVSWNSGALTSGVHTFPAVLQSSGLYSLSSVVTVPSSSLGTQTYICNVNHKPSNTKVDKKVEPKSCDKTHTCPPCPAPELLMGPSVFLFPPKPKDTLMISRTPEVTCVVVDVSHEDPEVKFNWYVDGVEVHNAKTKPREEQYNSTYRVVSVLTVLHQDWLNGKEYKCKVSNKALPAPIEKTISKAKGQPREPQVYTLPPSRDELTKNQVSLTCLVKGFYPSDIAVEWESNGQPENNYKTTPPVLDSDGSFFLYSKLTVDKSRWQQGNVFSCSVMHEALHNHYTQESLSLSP
light: B1 light
notes: copies: 2 + 2
B14: GpH7-B3 variant G236N/GpL16-k0 (antibody, human IgG1)
heavy: not shown
light: B1 light
notes: copies: 2 + 2
B15: GpH7-B3 variant G236P/GpL16-k0 (antibody, human IgG1)
heavy: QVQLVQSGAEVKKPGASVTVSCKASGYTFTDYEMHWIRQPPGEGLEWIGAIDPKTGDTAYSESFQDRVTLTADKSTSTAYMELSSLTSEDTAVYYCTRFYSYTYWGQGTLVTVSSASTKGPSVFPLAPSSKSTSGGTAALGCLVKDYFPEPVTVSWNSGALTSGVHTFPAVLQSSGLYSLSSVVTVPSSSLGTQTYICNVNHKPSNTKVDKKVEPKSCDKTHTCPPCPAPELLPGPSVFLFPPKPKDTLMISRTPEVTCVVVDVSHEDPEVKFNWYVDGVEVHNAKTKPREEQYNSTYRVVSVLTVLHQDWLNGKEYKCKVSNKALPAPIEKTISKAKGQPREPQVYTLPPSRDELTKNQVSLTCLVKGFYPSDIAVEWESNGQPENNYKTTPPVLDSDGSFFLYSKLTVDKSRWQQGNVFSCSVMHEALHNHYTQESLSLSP
light: B1 light
notes: copies: 2 + 2

Target: T1, human FcγRIIb
Test: SPR (Biacore);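 further: antibody variants captured on sensor chip, Fcγ receptor flowed over at 25 °C, bound receptor normalized to amount of captured antibody, expressed relative to reference antibody set as 100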

Q: With B1 as the binder, how does the relative binding activity read?
A: 15 % of GpH7-B3/GpL16-k0

Q: How did the relative binding activity turn out when B2 was run?
A: 15 % of GpH7-B3/GpL16-k0

Q: Which relative binding activity does the source give for B3 here?
A: 26 % of GpH7-B3/GpL16-k0

Q: How did the relative binding activity turn out when B4 was run?
A: 13 % of GpH7-B3/GpL16-k0

Q: For B5, which relative binding activity is on record?
A: 0 % of GpH7-B3/GpL16-k0

Q: With B6 as the binder, how does the relative binding activity read?
A: 19 % of GpH7-B3/GpL16-k0

Q: For B7, which relative binding activity is on record?
A: 10 % of GpH7-B3/GpL16-k0

Q: With B8 as the binder, how does the relative binding activity read?
A: 13 % of GpH7-B3/GpL16-k0

Q: For B9, which relative binding activity is on record?
A: 19 % of GpH7-B3/GpL16-k0

Q: With B10 as the binder, how does the relative binding activity read?
A: 15 % of GpH7-B3/GpL16-k0

Q: B11 was tested. Which relative binding activity did it give?
A: 6 % of GpH7-B3/GpL16-k0

Q: With B12 as the binder, how does the relative binding activity read?
A: 4 % of GpH7-B3/GpL16-k0

Q: B13 was tested. Which relative binding activity did it give?
A: 14 % of GpH7-B3/GpL16-k0

Q: For B14, which relative binding activity is on record?
A: 75 % of GpH7-B3/GpL16-k0

Q: For B15, which relative binding activity is on record?
A: 1 % of GpH7-B3/GpL16-k0

Target: T2, human FcγRIIa(H)
Test: SPR (Biacore);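 further: antibody variants captured on sensor chip, Fcγ receptor flowed over at 25 °C, bound receptor normalized to amount of captured antibody, expressed relative to reference antibody set as 100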

Q: B1 was tested. Which relative binding activity did it give?
A: 50 % of GpH7-B3/GpL16-k0

Q: B2 was tested. Which relative binding activity did it give?
A: 31 % of GpH7-B3/GpL16-k0

Q: How did the relative binding activity turn out when B3 was run?
A: 33 % of GpH7-B3/GpL16-k0

Q: Which relative binding activity does the source give for B4 here?
A: 64 % of GpH7-B3/GpL16-k0

Q: With B5 as the binder, how does the relative binding activity read?
A: 13 % of GpH7-B3/GpL16-k0

Q: B6 was tested. Which relative binding activity did it give?
A: 39 % of GpH7-B3/GpL16-k0

Q: Which relative binding activity does the source give for B7 here?
A: 35 % of GpH7-B3/GpL16-k0

Q: Which relative binding activity does the source give for B8 here?
A: 43 % of GpH7-B3/GpL16-k0

Q: Which relative binding activity does the source give for B9 here?
A: 48 % of GpH7-B3/GpL16-k0

Q: How did the relative binding activity turn out when B10 was run?
A: 68 % of GpH7-B3/GpL16-k0

Q: Which relative binding activity does the source give for B11 here?
A: 91 % of GpH7-B3/GpL16-k0

Q: Which relative binding activity does the source give for B12 here?
A: 23 % of GpH7-B3/GpL16-k0

Q: Which relative binding activity does the source give for B13 here?
A: 42 % of GpH7-B3/GpL16-k0

Q: With B14 as the binder, how does the relative binding activity read?
A: 81 % of GpH7-B3/GpL16-k0

Q: Which relative binding activity does the source give for B15 here?
A: 22 % of GpH7-B3/GpL16-k0

Target: T3, human FcγRIIa(R)
Test: SPR (Biacore);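 further: antibody variants captured on sensor chip, Fcγ receptor flowed over at 25 °C, bound receptor normalized to amount of captured antibody, expressed relative to reference antibody set as 100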

Q: How did the relative binding activity turn out when B1 was run?
A: 23 % of GpH7-B3/GpL16-k0

Q: B2 was tested. Which relative binding activity did it give?
A: 24 % of GpH7-B3/GpL16-k0

Q: How did the relative binding activity turn out when B3 was run?
A: 34 % of GpH7-B3/GpL16-k0

Q: Which relative binding activity does the source give for B4 here?
A: 24 % of GpH7-B3/GpL16-k0

Q: B5 was tested. Which relative binding activity did it give?
A: 2 % of GpH7-B3/GpL16-k0

Q: How did the relative binding activity turn out when B6 was run?
A: 35 % of GpH7-B3/GpL16-k0

Q: Which relative binding activity does the source give for B7 here?
A: 16 % of GpH7-B3/GpL16-k0

Q: How did the relative binding activity turn out when B8 was run?
A: 21 % of GpH7-B3/GpL16-k0

Q: With B9 as the binder, how does the relative binding activity read?
A: 33 % of GpH7-B3/GpL16-k0

Q: For B10, which relative binding activity is on record?
A: 23 % of GpH7-B3/GpL16-k0

Q: Which relative binding activity does the source give for B11 here?
A: 32 % of GpH7-B3/GpL16-k0

Q: Which relative binding activity does the source give for B12 here?
A: 20 % of GpH7-B3/GpL16-k0

Q: How did the relative binding activity turn out when B13 was run?
A: 23 % of GpH7-B3/GpL16-k0

Q: For B14, which relative binding activity is on record?
A: 54 % of GpH7-B3/GpL16-k0

Q: B15 was tested. Which relative binding activity did it give?
A: 12 % of GpH7-B3/GpL16-k0

Target: T4, human FcγRIIIa(F) (human, UniProt P08637 17-208, limits assumed)
T4 construct: also called FcgRIIIaF; allotype F158
T4 sequence (P08637 other isoform, or with tags, fused parts or gaps limits assumed): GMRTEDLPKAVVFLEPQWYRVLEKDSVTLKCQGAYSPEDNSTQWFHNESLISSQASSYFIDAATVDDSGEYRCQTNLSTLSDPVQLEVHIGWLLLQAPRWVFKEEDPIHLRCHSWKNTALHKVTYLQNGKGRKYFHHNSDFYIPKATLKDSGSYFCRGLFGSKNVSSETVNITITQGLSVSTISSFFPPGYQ
Test: SPR (Biacore);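 further: antibody variants captured on sensor chip, Fcγ receptor flowed over at 25 °C, bound receptor normalized to amount of captured antibody, expressed relative to reference antibody set as 100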

Q: With B1 as the binder, how does the relative binding activity read?
A: 20 % of GpH7-B3/GpL16-k0

Q: How did the relative binding activity turn out when B2 was run?
A: 21 % of GpH7-B3/GpL16-k0

Q: How did the relative binding activity turn out when B3 was run?
A: 14 % of GpH7-B3/GpL16-k0

Q: How did the relative binding activity turn out when B4 was run?
A: 38 % of GpH7-B3/GpL16-k0

Q: How did the relative binding activity turn out when B5 was run?
A: 7 % of GpH7-B3/GpL16-k0

Q: B6 was tested. Which relative binding activity did it give?
A: 26 % of GpH7-B3/GpL16-k0

Q: B7 was tested. Which relative binding activity did it give?
A: 12 % of GpH7-B3/GpL16-k0

Q: How did the relative binding activity turn out when B8 was run?
A: 14 % of GpH7-B3/GpL16-k0

Q: B9 was tested. Which relative binding activity did it give?
A: 29 % of GpH7-B3/GpL16-k0

Q: With B10 as the binder, how does the relative binding activity read?
A: 24 % of GpH7-B3/GpL16-k0

Q: For B11, which relative binding activity is on record?
A: 7 % of GpH7-B3/GpL16-k0

Q: Which relative binding activity does the source give for B12 here?
A: 1 % of GpH7-B3/GpL16-k0

Q: Which relative binding activity does the source give for B13 here?
A: 9 % of GpH7-B3/GpL16-k0

Q: With B14 as the binder, how does the relative binding activity read?
A: 8 % of GpH7-B3/GpL16-k0

Q: B15 was tested. Which relative binding activity did it give?
A: 1 % of GpH7-B3/GpL16-k0

Target: T5, human FcγRIa (human, UniProt P12314 16-292, limits assumed)
T5 construct: also called FcgRIa; FcγRI (CD64)
T5 sequence (P12314 16-292 limits assumed): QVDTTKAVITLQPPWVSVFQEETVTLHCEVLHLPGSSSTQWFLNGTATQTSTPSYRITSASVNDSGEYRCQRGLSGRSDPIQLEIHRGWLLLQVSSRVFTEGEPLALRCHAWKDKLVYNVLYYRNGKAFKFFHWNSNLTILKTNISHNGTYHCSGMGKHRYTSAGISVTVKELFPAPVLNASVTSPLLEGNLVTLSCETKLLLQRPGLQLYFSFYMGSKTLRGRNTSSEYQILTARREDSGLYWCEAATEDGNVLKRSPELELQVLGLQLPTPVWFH
Test: SPR (Biacore)

Q: B1 was tested. Which relative binding activity did it give?
A: 98 % of GpH7-B3/GpL16-k0

Q: How did the relative binding activity turn out when B2 was run?
A: 90 % of GpH7-B3/GpL16-k0

Q: For B3, which relative binding activity is on record?
A: 93 % of GpH7-B3/GpL16-k0

Q: For B4, which relative binding activity is on record?
A: 96 % of GpH7-B3/GpL16-k0

Q: With B5 as the binder, how does the relative binding activity read?
A: 72 % of GpH7-B3/GpL16-k0

Q: With B6 as the binder, how does the relative binding activity read?
A: 93 % of GpH7-B3/GpL16-k0

Q: Which relative binding activity does the source give for B7 here?
A: 92 % of GpH7-B3/GpL16-k0

Q: For B8, which relative binding activity is on record?
A: 97 % of GpH7-B3/GpL16-k0

Q: How did the relative binding activity turn out when B9 was run?
A: 93 % of GpH7-B3/GpL16-k0

Q: Which relative binding activity does the source give for B10 here?
A: 81 % of GpH7-B3/GpL16-k0

Q: B11 was tested. Which relative binding activity did it give?
A: 34 % of GpH7-B3/GpL16-k0

Q: With B12 as the binder, how does the relative binding activity read?
A: 18 % of GpH7-B3/GpL16-k0

Q: How did the relative binding activity turn out when B13 was run?
A: 70 % of GpH7-B3/GpL16-k0

Q: With B14 as the binder, how does the relative binding activity read?
A: 42 % of GpH7-B3/GpL16-k0

Q: Which relative binding activity does the source give for B15 here?
A: 2 % of GpH7-B3/GpL16-k0
